Data on 125 sequences can be found in the supplement of paper PMC9112550, “Optimization of the antimicrobial peptide Bac7 by deep mutational scanning” (BMC Biology, 2022).
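Further: peptides expressed intracellularly from a pBAD plasmid library in pooled LB shake-flask culture, induced with 0.3% L-arabinose, DNA abundance read by NGS, three biological replicates, DESeq2 with apeglm shrinkage.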

The test system of this data set is Escherichia coli TOP10. Put plainly: shrunken log2 fold change of peptide-encoding DNA abundance (4.5 h post-induction vs induction); higher = less antimicrobial activity (less host growth inhibition). The settings on record: time post-induction: 4.5 h; library: site-saturation at positions 5, 18, 19, 20.
For RRIRERPPRLPRPRPRPKHAPRP, the “shrunken log2 fold change” value is -0.0907.

In the case of RRIRIRPPRLPRPRPRPCDTPRP, the “shrunken log2 fold change” value was -0.387. Consider RRIRLRPPRLPRPRPRPFTSPRP, for which the “shrunken log2 fold change” value was -0.153. Under RRIRVRPPRLPRPRPRPLLQPRP stands 0.0881. As for RRIRMRPPRLPRPRPRPNKQPRP, the figure is 0.0442; as for RRIRCRPPRLPRPRPRPTFLPRP, -0.475.

In the case of RRIRHRPPRLPRPRPRPSEPPRP, the “shrunken log2 fold change” value was -0.206. Under RRIRKRPPRLPRPRPRPKFSPRP stands 0.0774; under RRIRWRPPRLPRPRPRPNSYPRP, -0.197; under RRIRKRPPRLPRPRPRPPLMPRP, 0.396. Under RRIRPRPPRLPRPRPRPDGSPRP stands -0.00717; under RRIRARPPRLPRPRPRPAVFPRP, 0.679. Under RRIRRRPPRLPRPRPRPEVWPRP stands 1.74; under RRIRWRPPRLPRPRPRPLYSPRP, -0.247. Take RRIRWRPPRLPRPRPRPYERPRP: the “shrunken log2 fold change” value is -0.0653.

On to RRIRIRPPRLPRPRPRPLQSPRP, for which the “shrunken log2 fold change” value was -0.0353. Under RRIRSRPPRLPRPRPRPDFLPRP stands -0.0689. Under RRIRLRPPRLPRPRPRPEQQPRP stands 0.0529; under RRIRGRPPRLPRPRPRPPQCPRP, 0.713; under RRIRKRPPRLPRPRPRPSTNPRP, 0.0826. As for RRIRRRPPRLPRPRPRPHDDPRP, the figure is 0.341; as for RRIRWRPPRLPRPRPRPVPLPRP, 0.00691; as for RRIRHRPPRLPRPRPRPNRQPRP, -0.0122. As to RRIRRRPPRLPRPRPRPNMHPRP, the “shrunken log2 fold change” value stood at 0.0848.

RRIRIRPPRLPRPRPRPHVFPRP: the “shrunken log2 fold change” value was determined as 0.064. As for RRIRSRPPRLPRPRPRPVCIPRP, the figure is -0.414; as for RRIRARPPRLPRPRPRPDTAPRP, 0.147. Under RRIRQRPPRLPRPRPRPFQWPRP stands 0.0154; under RRIRQRPPRLPRPRPRPIFKPRP, -0.208. As for RRIRLRPPRLPRPRPRPNMMPRP, the figure is -0.762; as for RRIRERPPRLPRPRPRPTSCPRP, -0.178. As to RRIRCRPPRLPRPRPRPFVCPRP, the “shrunken log2 fold change” value is -0.242. Under RRIRARPPRLPRPRPRPSMLPRP stands 0.0741; under RRIRNRPPRLPRPRPRPHSPPRP, -0.415; under RRIRCRPPRLPRPRPRPCPNPRP, -0.14. Under RRIRKRPPRLPRPRPRPLMTPRP stands 0.175.

In the case of RRIRHRPPRLPRPRPRPQQMPRP, the “shrunken log2 fold change” value stood at 0.00835. As for RRIRKRPPRLPRPRPRPWIQPRP, the figure is -0.01; as for RRIRSRPPRLPRPRPRPECSPRP, 0.201; as for RRIRTRPPRLPRPRPRPLNRPRP, -0.173. On to RRIRRRPPRLPRPRPRPPVQPRP, for which the “shrunken log2 fold change” value was 0.366. Under RRIRHRPPRLPRPRPRPWNYPRP stands -0.617; under RRIRMRPPRLPRPRPRPMHMPRP, 0.0153; under RRIRGRPPRLPRPRPRPKTSPRP, 0.702. Under RRIRHRPPRLPRPRPRPVALPRP stands -0.112.

Regarding RRIRLRPPRLPRPRPRPNWGPRP, the “shrunken log2 fold change” value was found to be 0.00356. As for RRIRWRPPRLPRPRPRPFHAPRP, the figure is 0.0472; as for RRIRTRPPRLPRPRPRPLTQPRP, -0.309. As for RRIRFRPPRLPRPRPRPINKPRP, the figure is -0.582. Under RRIRSRPPRLPRPRPRPSVYPRP stands -0.81.

Regarding RRIRVRPPRLPRPRPRPCHIPRP, the “shrunken log2 fold change” value is -0.312. Under RRIRVRPPRLPRPRPRPVPHPRP stands 0.135. Under RRIRFRPPRLPRPRPRPLHAPRP stands 0.0292; under RRIRSRPPRLPRPRPRPEWGPRP, 0.0115; under RRIRFRPPRLPRPRPRPSSLPRP, -0.856. Under RRIRDRPPRLPRPRPRPWVLPRP stands -0.00957; under RRIRWRPPRLPRPRPRPFLEPRP, 0.0541. As for RRIRVRPPRLPRPRPRPWAMPRP, the “shrunken log2 fold change” value was -0.0382. As for RRIRARPPRLPRPRPRPKDNPRP, the figure is 0.153; as for RRIRERPPRLPRPRPRPMQYPRP, -0.271; as for RRIRQRPPRLPRPRPRPVFCPRP, 0.0139. Under RRIRKRPPRLPRPRPRPHYIPRP stands -0.123.

In the case of RRIRCRPPRLPRPRPRPEWHPRP, the “shrunken log2 fold change” value was -0.0462. Under RRIRQRPPRLPRPRPRPFWIPRP stands -0.0587. Under RRIRNRPPRLPRPRPRPCYPPRP stands -0.318; under RRIRGRPPRLPRPRPRPDWMPRP, 0.235. As for RRIRKRPPRLPRPRPRPPEGPRP, the figure is 1.08; as for RRIRKRPPRLPRPRPRPAPDPRP, 0.598; as for RRIRVRPPRLPRPRPRPVFVPRP, -0.0229.

Take RRIRCRPPRLPRPRPRPQNFPRP: the “shrunken log2 fold change” value was -0.43. RRIRRRPPRLPRPRPRPKHSPRP: the “shrunken log2 fold change” value stood at 0.0683. As for RRIRTRPPRLPRPRPRPKMYPRP, the figure is -0.52; as for RRIRPRPPRLPRPRPRPLPPPRP, 0.36.

As for RRIRCRPPRLPRPRPRPKSIPRP, the “shrunken log2 fold change” value is -0.349. As for RRIRFRPPRLPRPRPRPENMPRP, the figure is -0.158; as for RRIRWRPPRLPRPRPRPHKPPRP, -0.119; as for RRIRLRPPRLPRPRPRPMEEPRP, 0.156. As for RRIRYRPPRLPRPRPRPMQWPRP, the figure is -0.00277. Consider RRIRWRPPRLPRPRPRPHFGPRP, for which the “shrunken log2 fold change” value turned out to be 0.168.

For RRIRGRPPRLPRPRPRPNNAPRP, the “shrunken log2 fold change” value worked out at 0.0616. As for RRIRQRPPRLPRPRPRPKRHPRP, the figure is -0.0733; as for RRIRIRPPRLPRPRPRPEFRPRP, 0.239.

In the case of RRIRPRPPRLPRPRPRPTTFPRP, the “shrunken log2 fold change” value is -0.173. As for RRIRRRPPRLPRPRPRPNYNPRP, the figure is -0.556.

RRIRIRPPRLPRPRPRPCIVPRP: the “shrunken log2 fold change” value was -0.562. As for RRIRARPPRLPRPRPRPVAYPRP, the figure is 0.0127; as for RRIRYRPPRLPRPRPRPNCNPRP, -0.962; as for RRIRWRPPRLPRPRPRPLAEPRP, 1.13. Under RRIRMRPPRLPRPRPRPHWLPRP stands -0.183; under RRIRPRPPRLPRPRPRPYMFPRP, -0.897. Regarding RRIRIRPPRLPRPRPRPTQVPRP, the “shrunken log2 fold change” value was determined as 0.00035. As for RRIRVRPPRLPRPRPRPIPQPRP, the figure is 0.485; as for RRIRARPPRLPRPRPRPLQVPRP, 0.151. As for RRIRDRPPRLPRPRPRPDYAPRP, the “shrunken log2 fold change” value stood at 0.016.

RRIRIRPPRLPRPRPRPACLPRP: the “shrunken log2 fold change” value was -0.228. As for RRIRERPPRLPRPRPRPDRCPRP, the figure is 0.0731. As for RRIRIRPPRLPRPRPRPSTYPRP, the figure is -1.63; as for RRIRARPPRLPRPRPRPQMTPRP, 0.0889.

Turning to RRIRHRPPRLPRPRPRPWTPPRP, the “shrunken log2 fold change” value is -0.502.

For RRIRHRPPRLPRPRPRPPDVPRP, the “shrunken log2 fold change” value came to 0.113. As for RRIRIRPPRLPRPRPRPRAQPRP, the figure is 0.27; as for RRIRKRPPRLPRPRPRPKGWPRP, 0.61; as for RRIRDRPPRLPRPRPRPPRMPRP, 0.345. As for RRIRDRPPRLPRPRPRPTEPPRP, the figure is 0.185; as for RRIRPRPPRLPRPRPRPQDKPRP, -0.00457. Take RRIRTRPPRLPRPRPRPDFRPRP: the “shrunken log2 fold change” value was 0.0337. Consider RRIRWRPPRLPRPRPRPYICPRP, for which the “shrunken log2 fold change” value was -0.329. As for RRIRMRPPRLPRPRPRPFFPPRP, the figure is -1.89e-05; as for RRIRTRPPRLPRPRPRPLQQPRP, -0.0185.

RRIRNRPPRLPRPRPRPSFVPRP: the “shrunken log2 fold change” value is -0.266.

In the case of RRIRMRPPRLPRPRPRPCPCPRP, the “shrunken log2 fold change” value was found to be 0.495. RRIRPRPPRLPRPRPRPEKRPRP: the “shrunken log2 fold change” value is 0.0688.

Turning to RRIRVRPPRLPRPRPRPQESPRP, the “shrunken log2 fold change” value was -0.0491.

With RRIRERPPRLPRPRPRPHGWPRP, the “shrunken log2 fold change” value stood at 0.136. Under RRIRWRPPRLPRPRPRPWLRPRP stands 0.0741. As for RRIRPRPPRLPRPRPRPSWYPRP, the figure is -0.698; as for RRIRCRPPRLPRPRPRPINRPRP, 0.0376; as for RRIRDRPPRLPRPRPRPVYTPRP, -0.0405. In the case of RRIRIRPPRLPRPRPRPVGDPRP, the “shrunken log2 fold change” value was -0.0246.

Consider RRIRFRPPRLPRPRPRPVCFPRP, for which the “shrunken log2 fold change” value is -0.151. As for RRIRRRPPRLPRPRPRPWCVPRP, the figure is -0.032; as for RRIRSRPPRLPRPRPRPPHKPRP, 0.173. Under RRIRTRPPRLPRPRPRPRSMPRP stands 0.0542. As for RRIRGRPPRLPRPRPRPQNSPRP, the figure is -0.506; as for RRIRYRPPRLPRPRPRPHWFPRP, -0.402.
